In US20260242485A1 (LEPU BIOPHARMA, published 2026):

Key:
[1] = molecular target: T1, human CCR8 expressed on cells (human, UniProt P51685 1-355); assay: flow cytometry, HEK293 hCCR8 cells (HEK293 NC parental cells as control), PE anti-human IgG Fc, geometric mean
T1 construct: whole, on cells; also called hCCR8; HEK293 hCCR8 cell line
Experimental: (§1) Briefly, HEK293 hCCR8 cell line, CHO-K1 mCCR8 cell line and the parental cell lines were first incubated with serially diluted 194A1G9 at 4° C. for 30 mins. After washing by FACS buffer, PE Goat anti-Human IgG Fc Secondary Antibody (eBioscience™, Invitrogen) was added to each well and incubated at 4° C. for 30 mins. Samples were washed twice with FACS staining buffer. The mean florescence intensity (MFI) of PE was evaluated by MACSQuant Analyzer 16.

[2] = molecular target: T2, mouse CCR8 expressed on CHO-K1 cells (mouse, UniProt P56484 1-353); assay: flow cytometry, CHO-K1 mCCR8 cells (CHO-K1 NC parental cells as control), PE anti-human IgG Fc, geometric mean
T2 construct: whole, on cells; also called mCCR8; murine CCR8
T2 sequence (looked up): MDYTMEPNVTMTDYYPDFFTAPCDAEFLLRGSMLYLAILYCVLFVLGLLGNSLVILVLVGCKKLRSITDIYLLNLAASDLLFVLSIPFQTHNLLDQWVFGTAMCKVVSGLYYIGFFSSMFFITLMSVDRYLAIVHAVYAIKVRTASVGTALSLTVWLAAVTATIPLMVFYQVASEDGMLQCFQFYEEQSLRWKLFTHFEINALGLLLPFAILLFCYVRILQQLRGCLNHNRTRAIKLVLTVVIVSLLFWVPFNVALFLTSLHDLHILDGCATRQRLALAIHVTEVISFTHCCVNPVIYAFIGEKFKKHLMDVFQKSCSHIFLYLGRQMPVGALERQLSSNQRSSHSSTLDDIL
Experimental: as §1

[3] = molecular target: T3, human CD16B-NA1 expressed on CHO-K1 cells (human, UniProt O75015 17-200); assay: flow cytometry, CHO-K1-hCD16B-NA1 cells, Alexa Fluor 647 anti-human IgG Fc, geometric mean
T3 construct: whole, on cells; also called hCD16B-NA1; CHO-K1-hCD16B-NA1
T3 sequence (O75015 other isoform, or with tags, fused parts or gaps): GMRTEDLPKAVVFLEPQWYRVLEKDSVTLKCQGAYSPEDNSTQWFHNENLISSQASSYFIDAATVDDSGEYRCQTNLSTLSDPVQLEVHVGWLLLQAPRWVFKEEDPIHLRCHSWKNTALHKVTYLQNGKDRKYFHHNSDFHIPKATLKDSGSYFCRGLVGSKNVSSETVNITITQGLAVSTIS
Experimental: (§2) In order to evaluate the binding activity of the chimeric mAbs to human CD16A expressed on cells, cell-based binding assay was employed as followed. […] The antibody dilutions were incubated with 1×10⁵ indicated cells in the 96-well microplate for one hour at 4° C. The antibodies binding to the antigen on the cell surface were detected with PE fluorophore-conjugated anti-human IgG Fc secondary antibodies (ThermoFisher scientific, Cat. No. 12-4998-82) at a dilution rate of 1:1000. Cells were analyzed by flow cytometer LSRFortessa Cell Analyzer (BD Biosciences). Data were analyzed with Flowjo 10.0 software. The graph and statistics analysis were generated with four-parameter nonlinear regression curve fit in Graphpad Prism 9 software.
(§3) The assay was performed following the protocol described above. The antibodies binding to the antigen on the cell surface were detected with Alexa Fluor® 647 AffiniPure™ F(ab′)₂ fragment goat anti-human IgG Fcγ fragment specific secondary antibody (Jackson Immuno Research, Cat. No. 109-606-098) at a dilution rate of 1:2000.

[4] = molecular target: T4, human CD16A-158F expressed on CHO-K1 cells (human, UniProt P08637 17-254); assay: flow cytometry, CHO-K1-hCD16A-158F cells, Alexa Fluor 647 anti-human IgG Fc, geometric mean
T4 construct: whole, on cells
T4 sequence (P08637 17-254): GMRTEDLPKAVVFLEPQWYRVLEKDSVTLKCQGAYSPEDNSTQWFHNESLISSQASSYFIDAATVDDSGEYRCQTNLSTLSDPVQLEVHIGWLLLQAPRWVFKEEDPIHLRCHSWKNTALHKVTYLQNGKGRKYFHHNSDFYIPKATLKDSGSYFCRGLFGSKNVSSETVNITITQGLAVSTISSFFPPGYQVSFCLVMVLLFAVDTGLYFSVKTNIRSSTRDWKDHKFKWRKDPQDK
Experimental: as §2, §3

[5] = molecular target: T5, cynomolgus CD16 expressed on CHO-K1 cells (cynomolgus, UniProt Q8SPW2 17-254); assay: flow cytometry, CHO-K1-cyno CD16 cells, Alexa Fluor 647 anti-human IgG Fc, geometric mean
T5 construct: whole, on cells; also called cyno CD16; CHO-K1-cynoCD16
T5 sequence (Q8SPW2 17-254): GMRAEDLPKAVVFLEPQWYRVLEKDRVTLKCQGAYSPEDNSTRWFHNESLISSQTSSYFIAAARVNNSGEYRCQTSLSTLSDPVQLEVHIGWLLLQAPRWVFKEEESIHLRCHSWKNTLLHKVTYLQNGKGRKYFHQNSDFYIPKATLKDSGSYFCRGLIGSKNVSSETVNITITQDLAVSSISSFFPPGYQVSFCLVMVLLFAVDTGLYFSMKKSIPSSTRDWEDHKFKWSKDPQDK
Experimental: as §2, §3

[6] = molecular target: T6, human CD16A-158V expressed on CHO-K1 cells (human, UniProt P08637 17-254); assay: flow cytometry, CHO-K1-hCD16A-158V cells, geometric mean
T6 construct: whole, on cells; also called hCD16A-158V; CHO-K1-hCD16A-158V
T6 sequence (P08637 17-254 F176V): as the sequence (P08637 17-254) above, with F160V counted along it
Experimental: as §2
(§4) The assay was performed following the protocol described above.

[7] = molecular target: T5, cynomolgus CD16 expressed on CHO-K1 …; assay: flow cytometry, CHO-K1-cyno CD16 cells, geometric mean
Experimental: as §2, §4

[8] = molecular target: T4, human CD16A-158F expressed on CHO-K1 …; assay: flow cytometry, CHO-K1-hCD16A-158F cells, geometric mean
Experimental: as §2, §4

[9] = molecular target: T6, human CD16A-158V expressed on CHO-K1 …; assay: flow cytometry, CHO-K1-hCD16A-158V cells, Alexa Fluor 647 anti-human IgG Fc, geometric mean
Experimental: as §2, §3

[10] = molecular target: T3, human CD16B-NA1 expressed on CHO-K1 …; assay: flow cytometry, CHO-K1-hCD16B-NA1 cells, geometric mean
[11] = molecular target: T7, human GPC3 on HepG2 cells (human, UniProt P51654 25-554); assay: flow cytometry, HepG2 cells (GPC3 positive), geometric mean
T7 construct: whole, on cells; also called GPC3-positive HepG2 cells
T7 sequence (P51654 25-554 limits assumed): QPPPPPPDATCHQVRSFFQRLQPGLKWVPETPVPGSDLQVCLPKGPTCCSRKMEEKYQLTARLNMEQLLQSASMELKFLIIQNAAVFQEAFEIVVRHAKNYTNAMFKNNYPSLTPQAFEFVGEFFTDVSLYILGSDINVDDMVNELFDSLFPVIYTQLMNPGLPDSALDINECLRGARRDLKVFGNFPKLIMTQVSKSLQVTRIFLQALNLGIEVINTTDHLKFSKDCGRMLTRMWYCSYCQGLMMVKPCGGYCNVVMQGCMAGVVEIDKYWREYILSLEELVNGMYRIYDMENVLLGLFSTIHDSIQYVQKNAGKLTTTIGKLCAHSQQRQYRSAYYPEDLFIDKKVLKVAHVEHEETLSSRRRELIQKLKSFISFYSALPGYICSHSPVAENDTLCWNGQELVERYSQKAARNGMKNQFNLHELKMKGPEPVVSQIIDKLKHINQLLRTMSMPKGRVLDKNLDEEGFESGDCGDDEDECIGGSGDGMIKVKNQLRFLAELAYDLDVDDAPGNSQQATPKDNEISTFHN

[12] = molecular target: T6, human CD16A-158V expressed on CHO-K1 …; assay: flow cytometry, CHO-K1-hCD16A-158V cells, geometric mean; remark: listed apart in the source
[13] = molecular target: T4, human CD16A-158F expressed on CHO-K1 …; assay: flow cytometry, CHO-K1-hCD16A-158F cells, geometric mean; remark: listed apart in the source

T1 sequence (P51685 whole entry): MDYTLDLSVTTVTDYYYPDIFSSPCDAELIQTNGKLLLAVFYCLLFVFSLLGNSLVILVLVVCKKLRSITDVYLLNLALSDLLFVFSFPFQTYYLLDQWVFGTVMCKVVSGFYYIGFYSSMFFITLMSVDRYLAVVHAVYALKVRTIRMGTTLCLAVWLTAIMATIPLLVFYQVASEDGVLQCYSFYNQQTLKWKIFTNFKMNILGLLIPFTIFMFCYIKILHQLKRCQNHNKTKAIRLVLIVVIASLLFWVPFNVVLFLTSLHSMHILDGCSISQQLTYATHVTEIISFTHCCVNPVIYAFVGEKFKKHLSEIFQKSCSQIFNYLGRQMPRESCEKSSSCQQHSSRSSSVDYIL

B1: 194A1G9 (antibody, V domains shown)
VH: QVQLQQSGTELVRPGASVTLSCKASGYTFTDHEMYWVKQTPVHGLEWIGAVDPETGSTAYNQKFKVKAILTADKSSSTAYMELRSLTSEDSAVYYCTSRLRRAMDNWGHGTSVTVSS
VL: DVVLTQTPLSLPVSPGDQASISCRSSQTLLHSSGNTYLHWFLQKPGQSPKLLIYKVSNRFSGVPDRFSGSGSGTDFTLKISRVEAEDLGVYFCSQNTHVPWTFGGGTKLEIK
notes: Detected with anti-human IgG Fc, so with a human Fc; also called surrogate anti-CCR8 antibody 194A1G9; in house anti-mCCR8 clone 194A1G9
EC50 (read off the curve) [1]: ~0.1 nM
EC50 (read off the curve) [2]: ~5 nM

B2: 45H6E8-z19 (antibody, human IgG1, V domains shown)
VH: QVQLVQSGAEVKKPGASVKVSCKVSGYTLTDYYMQWVRQAPGKGLEWIGWIDPENGDTEYAPKFQGRVTMTADTSTDTAYMELSSLRSEDTAVYYCTTGGNYVDWGQGTTVTVSS
VL: DIQMTQSPSFLSASVGDRVTITCKASQNVGTAVAWYQQKPGKAPKLLIYSASNRYTGVPDRFSGSGSGTDFTLTISSLQPEDFATYFCQQYSSYPLLTFGQGTRLEIK
notes: Human IgG1 LALAPG constant region; also called HU-VH1-6 / HU-VL1-3
binding result [3]: no binding (tested: 100 nM)
EC50 (read off the curve) [4]: ~0.4 nM
EC50 (read off the curve) [5]: ~1 nM
EC50 (read off the curve) [6]: ~0.4 nM
EC50 (read off the curve) [7]: ~0.7 nM
EC50 (read off the curve) [8]: ~0.4 nM
EC50 (read off the curve) [9]: ~0.4 nM

B3: 45H6E8-z19p1 (antibody, V domains shown)
VH: QVQLVQSGAEVKKPGASVKVSCKVSGYTLTDYYMQWVRQAPGKGLEWIGWIDPEQGDTEYAPKFQGRVTMTADTSTDTAYMELSSLRSEDTAVYYCTTGGNYVDWGQGTTVTVSS
VL: DIQMTQSPSFLSASVGDRVTITCKASQNVGTAVAWYQQKPGKAPKLLIYSASNRYTGVPDRFSGSGSGTDFTLTISSLQPEDFATYFCQQYSSYPLLTFGQGTRLEIK
notes: PTM-removed (N to Q in VH CDR2) version of z19
binding result [10]: no binding (tested: 100 nM)
binding result [11]: no binding (tested: 100 nM)
EC50 (read off the curve) [12]: ~0.5 nM
EC50 (read off the curve) [6]: ~0.4 nM
EC50 (read off the curve) [7]: ~0.7 nM
EC50 (read off the curve) [8]: ~0.4 nM
EC50 (read off the curve) [13]: ~0.5 nM

B4: 45H6E8-z20p1 (antibody, V domains shown)
VH: QVQLVQSGAEVKKPGASVKVSCKVSGYTLTDYYMQWVRQAPGKGLEWMGWIDPEQGDTEYAPKFQGRATMTADTSTDTAYMELSSLRSEDTAVYYCTTGGNYVDWGQGTTVTVSS
VL: DIQMTQSPSFLSASVGDRVTITCKASQNVGTAVAWYQQKPGKAPKLLIYSASNRYTGVPDRFSGSGSGTDFTLTISSLQPEDFATYFCQQYSSYPLLTFGQGTRLEIK
notes: PTM-removed version of z20
binding result [10]: no binding (tested: 100 nM)
EC50 (read off the curve) [6]: ~0.4 nM
EC50 (read off the curve) [7]: ~0.7 nM
EC50 (read off the curve) [8]: ~0.4 nM

B5: 45H6E8-z20 (antibody, human IgG1, V domains shown)
VH: QVQLVQSGAEVKKPGASVKVSCKVSGYTLTDYYMQWVRQAPGKGLEWMGWIDPENGDTEYAPKFQGRATMTADTSTDTAYMELSSLRSEDTAVYYCTTGGNYVDWGQGTTVTVSS
VL: DIQMTQSPSFLSASVGDRVTITCKASQNVGTAVAWYQQKPGKAPKLLIYSASNRYTGVPDRFSGSGSGTDFTLTISSLQPEDFATYFCQQYSSYPLLTFGQGTRLEIK
notes: Human IgG1 LALAPG constant region; also called HU-VH1-7 / HU-VL1-3
binding result [3]: no binding (tested: 100 nM)
EC50 (read off the curve) [4]: ~0.4 nM
EC50 (read off the curve) [5]: ~1 nM
EC50 (read off the curve) [6]: ~0.4 nM
EC50 (read off the curve) [7]: ~0.8 nM
EC50 (read off the curve) [8]: ~0.4 nM
EC50 (read off the curve) [9]: ~0.4 nM
